From paper PMC10765524
*1 amine or outer side, *2 acyl side, *3 side chain or, on linkers, in order; H or OH if unused. Where no end group is shown, it is not given here. [ ]: non-standard residue; d: D form. tpS = thiophosphoserine, O=C([C@H](COP(O)(O)=S)N[*:1])[*:2]

Biological target: PP2A:B55 holoenzyme (PP2Aa, B55, PP2Ac) (UniProt P30153)
Sequence (P30153 9-589, chain 1 of 3): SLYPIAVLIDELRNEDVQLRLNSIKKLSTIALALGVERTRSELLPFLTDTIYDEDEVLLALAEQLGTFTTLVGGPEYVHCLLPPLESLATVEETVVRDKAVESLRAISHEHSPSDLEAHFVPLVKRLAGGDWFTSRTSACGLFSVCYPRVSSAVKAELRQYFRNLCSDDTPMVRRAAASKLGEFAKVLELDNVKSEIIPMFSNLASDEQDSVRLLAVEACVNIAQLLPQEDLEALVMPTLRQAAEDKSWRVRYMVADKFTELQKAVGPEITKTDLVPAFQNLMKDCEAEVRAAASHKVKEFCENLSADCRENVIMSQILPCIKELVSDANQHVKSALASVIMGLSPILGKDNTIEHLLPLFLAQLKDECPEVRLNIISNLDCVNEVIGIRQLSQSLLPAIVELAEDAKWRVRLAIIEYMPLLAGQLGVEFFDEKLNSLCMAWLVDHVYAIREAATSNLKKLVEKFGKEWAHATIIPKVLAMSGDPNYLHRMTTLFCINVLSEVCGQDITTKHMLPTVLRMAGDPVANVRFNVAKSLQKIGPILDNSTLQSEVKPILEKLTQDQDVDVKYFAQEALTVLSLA
Sequence (P63151 whole entry, chain 2 of 3, further chain): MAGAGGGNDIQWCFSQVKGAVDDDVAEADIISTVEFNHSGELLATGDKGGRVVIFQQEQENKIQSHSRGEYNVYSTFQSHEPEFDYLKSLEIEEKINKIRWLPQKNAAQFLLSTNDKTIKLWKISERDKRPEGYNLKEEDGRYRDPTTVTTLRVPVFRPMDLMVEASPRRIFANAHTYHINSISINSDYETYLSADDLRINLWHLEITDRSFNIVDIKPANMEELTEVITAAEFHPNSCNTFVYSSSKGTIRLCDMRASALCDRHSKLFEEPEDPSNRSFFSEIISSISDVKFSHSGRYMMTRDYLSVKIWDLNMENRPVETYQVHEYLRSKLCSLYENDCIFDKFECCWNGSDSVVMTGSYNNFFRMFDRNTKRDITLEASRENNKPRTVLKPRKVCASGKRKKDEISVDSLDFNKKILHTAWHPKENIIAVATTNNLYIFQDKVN
Sequence (P67775 whole entry, chain 3 of 3, further chain): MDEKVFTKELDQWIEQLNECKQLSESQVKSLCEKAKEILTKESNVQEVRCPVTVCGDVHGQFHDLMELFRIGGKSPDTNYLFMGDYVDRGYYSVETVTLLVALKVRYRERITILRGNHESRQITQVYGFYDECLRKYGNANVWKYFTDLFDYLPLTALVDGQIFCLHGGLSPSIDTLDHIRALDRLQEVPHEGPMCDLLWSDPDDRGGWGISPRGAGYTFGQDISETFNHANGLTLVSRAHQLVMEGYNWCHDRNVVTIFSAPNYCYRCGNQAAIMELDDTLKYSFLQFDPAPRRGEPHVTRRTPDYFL

- IC50 of PP2A:B55 inhibition (DiFMUP), against tpARPP19: > 50 fold
B1: tpARPP19_(19–75) (domain or fragment)
chain: DKVTSPEKAEEAKLKARYPHLGQKPGGSDFLRKRLQKGQKYFD[tpS]GDYNMAKAKMKNK
modifications: also: thiophosphorylated, site not given here
